The series has as its target T1, DENR (in DENR-MCTS1 complex, coexpressed);MCTS1 (in DENR-MCTS1 complex, coexpressed) (human;human) (UniProt O43583+Q9ULC4).
T1 sequence 1: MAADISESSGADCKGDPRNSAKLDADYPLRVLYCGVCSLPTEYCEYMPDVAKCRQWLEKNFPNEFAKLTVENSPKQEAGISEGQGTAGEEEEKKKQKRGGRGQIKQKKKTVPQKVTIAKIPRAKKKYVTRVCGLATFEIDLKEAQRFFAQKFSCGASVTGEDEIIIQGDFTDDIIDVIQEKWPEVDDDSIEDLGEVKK
T1 sequence 2: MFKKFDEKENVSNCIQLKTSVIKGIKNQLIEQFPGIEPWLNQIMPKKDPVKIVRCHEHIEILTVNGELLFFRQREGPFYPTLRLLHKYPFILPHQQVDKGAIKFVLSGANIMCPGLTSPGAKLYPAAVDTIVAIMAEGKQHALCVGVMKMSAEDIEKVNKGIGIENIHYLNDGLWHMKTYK
Description: EMSA. The following applies: Scatchard, 5 replicates; general value, per-tRNA Kd only in S3E' Fig; 50 mM Tris pH 7.5, 150 mM NaCl, 15 mM imidazole (protein eluted in 300 mM imidazole, 2 mM DTT added), protein 0.25-16 uM, RNA 1 uM (3 uM yeast tRNA mix), 30 min.

tRNA, species not specified in text returned a Kd of 1500 nM.

In general, Kd refers to the concentration at which binding is half-saturated. Read a low Kd as a tighter complex.

These data come from PMC6013234.
